Assay results as given in publication doi:10.1101/2020.06.08.141267 (bioRxiv, 2020).

Molecular target: T1, receptor-binding domain (RBD) of the SARS-CoV-2 spike (S) protein (SARS-CoV-2, UniProt P0DTC2)
T1 construct: not shown: His6, C-terminal, kept
Assay: BLI
Settings: both partners purified

B1: CC12.1 Fab (Fab, V domains shown)
VH: EVQLVESGGGLIQPGGSLRLSCAASGLTVSSNYMSWVRQAPGKGLEWVSVIYSGGSTFYADSVKGRFTISRDNSKNTLYLQMNSLRAEDTAVYYCARDLDVYGLDVWGQGTTVTVSS
VL: DIVMTQSPSFLSASVGDRVTITCRASQGISSYLAWYQQKPGKAPKLLIYAASTLQSGVPSRFSGSGSGTEFTLTISSLQPEDFATYYCQQLNSYPPKFTFGPGTKVEIK
notes: also called Fab CC12.1
B1 was tested, and the Kd was 17 nM.
